The target in this assay is MoKat2 tagged with FLAG or GFP (MoKat2-FLAG and MoKat2-GFP) (Magnaporthe oryzae). Description: native gel or EMSA.

As to “MoKat2 tagged with FLAG or GFP (MoKat2-FLAG and MoKat2-GFP) (enzyme)”, the stoichiometry N is 2.

The values above are taken from PMC10746245.
